Test results: patent publication US20240083948A1 (ADVANCED TECHNOLOGIES FOR NOVEL THERAPEUTICS, published 2024)

What was measured:
Assay in all cases: cell-based or functional assay
[1] = target: TrkB (UniProt Q16620 455-822, limits assumed)
[2] = target: RPS6KB1 (p70S6K) (UniProt P23443 1-421, limits assumed)
[3] = target: AKT1 (PKB alpha), active (UniProt P31749 1-480, limits assumed)
[4] = target: PAK3 (UniProt O75914 1-559, limits assumed)
[5] = target: T1, PI3Kδ (UniProt O00329 1-1044, limits assumed)
T1 sequence (looked up): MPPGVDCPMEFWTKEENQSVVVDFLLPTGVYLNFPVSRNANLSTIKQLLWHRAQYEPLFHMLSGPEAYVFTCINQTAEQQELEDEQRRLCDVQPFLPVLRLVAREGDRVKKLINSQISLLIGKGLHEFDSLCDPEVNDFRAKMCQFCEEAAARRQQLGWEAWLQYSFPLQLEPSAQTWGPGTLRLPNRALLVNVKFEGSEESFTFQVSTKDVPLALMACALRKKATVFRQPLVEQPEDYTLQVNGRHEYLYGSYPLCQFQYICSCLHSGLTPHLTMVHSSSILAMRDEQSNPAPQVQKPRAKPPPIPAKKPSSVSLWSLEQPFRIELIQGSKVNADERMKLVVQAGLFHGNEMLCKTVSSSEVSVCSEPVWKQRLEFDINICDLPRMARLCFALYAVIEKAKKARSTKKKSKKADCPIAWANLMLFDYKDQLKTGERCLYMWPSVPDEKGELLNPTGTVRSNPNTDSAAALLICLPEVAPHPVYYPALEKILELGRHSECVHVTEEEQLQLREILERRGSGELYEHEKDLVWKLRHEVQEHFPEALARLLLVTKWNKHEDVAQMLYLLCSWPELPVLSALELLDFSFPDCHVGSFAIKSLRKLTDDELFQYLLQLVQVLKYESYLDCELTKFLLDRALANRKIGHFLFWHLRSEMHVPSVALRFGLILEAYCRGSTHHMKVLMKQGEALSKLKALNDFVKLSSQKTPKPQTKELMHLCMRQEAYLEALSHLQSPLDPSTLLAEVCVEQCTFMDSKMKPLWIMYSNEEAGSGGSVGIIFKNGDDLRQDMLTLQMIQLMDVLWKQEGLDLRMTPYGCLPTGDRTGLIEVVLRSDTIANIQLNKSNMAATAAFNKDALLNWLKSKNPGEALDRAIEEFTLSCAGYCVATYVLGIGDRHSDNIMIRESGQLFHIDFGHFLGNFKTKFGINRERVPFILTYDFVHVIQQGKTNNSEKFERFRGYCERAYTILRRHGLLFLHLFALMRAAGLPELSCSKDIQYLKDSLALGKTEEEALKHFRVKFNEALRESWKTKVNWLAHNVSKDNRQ

[6] = target: JAK3 (UniProt P52333 781-1124, limits assumed)
JAK3, sequence (P52333 781-1124 limits assumed): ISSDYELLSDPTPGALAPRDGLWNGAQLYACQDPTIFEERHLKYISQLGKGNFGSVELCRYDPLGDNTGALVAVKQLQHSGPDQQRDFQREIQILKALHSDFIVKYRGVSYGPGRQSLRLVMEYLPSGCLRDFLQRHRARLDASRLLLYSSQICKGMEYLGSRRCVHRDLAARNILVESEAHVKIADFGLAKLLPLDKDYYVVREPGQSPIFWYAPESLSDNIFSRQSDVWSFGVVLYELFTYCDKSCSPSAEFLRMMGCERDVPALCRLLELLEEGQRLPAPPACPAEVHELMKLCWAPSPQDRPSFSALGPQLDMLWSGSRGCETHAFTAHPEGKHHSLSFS

[7] = target: Abl (UniProt P00519 27-1130, limits assumed)
Abl, sequence (P00519 27-1130 limits assumed): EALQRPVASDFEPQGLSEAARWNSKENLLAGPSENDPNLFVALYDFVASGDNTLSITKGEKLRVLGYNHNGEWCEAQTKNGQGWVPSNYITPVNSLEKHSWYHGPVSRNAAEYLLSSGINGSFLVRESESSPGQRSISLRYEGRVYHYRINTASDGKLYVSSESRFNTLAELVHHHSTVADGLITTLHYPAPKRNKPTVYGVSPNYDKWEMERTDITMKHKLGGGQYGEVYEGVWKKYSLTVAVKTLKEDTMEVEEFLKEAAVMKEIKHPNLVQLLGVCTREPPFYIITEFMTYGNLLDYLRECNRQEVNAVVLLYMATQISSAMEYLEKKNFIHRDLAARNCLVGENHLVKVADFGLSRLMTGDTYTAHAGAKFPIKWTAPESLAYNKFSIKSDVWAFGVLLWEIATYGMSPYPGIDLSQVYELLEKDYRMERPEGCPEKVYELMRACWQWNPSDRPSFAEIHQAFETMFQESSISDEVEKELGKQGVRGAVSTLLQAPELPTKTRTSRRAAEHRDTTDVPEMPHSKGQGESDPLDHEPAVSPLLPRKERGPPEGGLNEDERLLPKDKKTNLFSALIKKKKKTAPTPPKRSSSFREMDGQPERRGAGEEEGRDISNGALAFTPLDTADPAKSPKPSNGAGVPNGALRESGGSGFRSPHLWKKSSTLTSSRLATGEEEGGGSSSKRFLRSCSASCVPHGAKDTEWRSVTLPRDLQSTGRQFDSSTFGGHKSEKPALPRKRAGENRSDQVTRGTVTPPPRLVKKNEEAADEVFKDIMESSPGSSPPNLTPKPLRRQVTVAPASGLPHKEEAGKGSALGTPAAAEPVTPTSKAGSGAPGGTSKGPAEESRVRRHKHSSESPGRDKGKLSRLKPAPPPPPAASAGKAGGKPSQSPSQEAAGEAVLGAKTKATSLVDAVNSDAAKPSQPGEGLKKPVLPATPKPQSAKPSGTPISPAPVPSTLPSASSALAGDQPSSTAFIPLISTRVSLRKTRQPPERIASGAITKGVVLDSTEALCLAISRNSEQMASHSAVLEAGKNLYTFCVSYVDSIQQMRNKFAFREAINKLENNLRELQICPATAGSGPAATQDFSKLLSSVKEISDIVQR

[8] = target: T2, SGK (SGK1) (UniProt O00141 60-431, limits assumed)
T2 sequence (looked up): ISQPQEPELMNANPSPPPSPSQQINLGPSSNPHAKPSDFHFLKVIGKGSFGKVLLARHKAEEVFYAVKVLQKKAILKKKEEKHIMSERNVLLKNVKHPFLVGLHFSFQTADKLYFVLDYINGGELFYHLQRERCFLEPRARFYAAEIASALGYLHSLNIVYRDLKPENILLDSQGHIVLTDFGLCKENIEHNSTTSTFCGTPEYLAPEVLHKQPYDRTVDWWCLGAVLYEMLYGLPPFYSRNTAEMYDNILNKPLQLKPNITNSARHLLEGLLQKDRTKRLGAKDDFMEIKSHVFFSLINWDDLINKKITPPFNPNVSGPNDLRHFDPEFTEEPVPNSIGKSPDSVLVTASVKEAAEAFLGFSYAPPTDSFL

[9] = target: AKT2 (PKB beta) (UniProt P31751 1-481, limits assumed)
AKT2 (PKB beta), sequence (P31751 whole entry): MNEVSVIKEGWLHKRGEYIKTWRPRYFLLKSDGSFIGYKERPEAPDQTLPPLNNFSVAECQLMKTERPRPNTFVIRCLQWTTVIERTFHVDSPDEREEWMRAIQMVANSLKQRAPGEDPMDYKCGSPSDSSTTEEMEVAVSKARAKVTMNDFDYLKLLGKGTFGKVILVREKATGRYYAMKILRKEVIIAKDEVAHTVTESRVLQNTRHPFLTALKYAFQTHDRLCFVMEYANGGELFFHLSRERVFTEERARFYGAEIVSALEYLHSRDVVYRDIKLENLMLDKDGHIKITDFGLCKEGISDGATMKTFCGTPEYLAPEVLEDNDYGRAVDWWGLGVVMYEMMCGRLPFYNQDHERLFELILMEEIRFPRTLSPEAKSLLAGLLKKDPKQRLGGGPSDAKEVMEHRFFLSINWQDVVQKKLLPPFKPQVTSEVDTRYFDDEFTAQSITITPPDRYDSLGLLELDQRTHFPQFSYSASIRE

TrkB, sequence (Q16620 455-822 limits assumed): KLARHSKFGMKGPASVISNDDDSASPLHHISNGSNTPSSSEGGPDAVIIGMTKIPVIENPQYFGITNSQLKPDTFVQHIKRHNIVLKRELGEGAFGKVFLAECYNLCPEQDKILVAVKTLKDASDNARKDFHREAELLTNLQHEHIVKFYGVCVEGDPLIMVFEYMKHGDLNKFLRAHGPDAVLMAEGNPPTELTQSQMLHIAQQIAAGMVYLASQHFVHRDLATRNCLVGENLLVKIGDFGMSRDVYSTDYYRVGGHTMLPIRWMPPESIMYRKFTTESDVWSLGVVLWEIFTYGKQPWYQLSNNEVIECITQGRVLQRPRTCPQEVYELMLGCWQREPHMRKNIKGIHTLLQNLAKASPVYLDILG
RPS6KB1 (p70S6K), sequence (P23443 1-421 limits assumed): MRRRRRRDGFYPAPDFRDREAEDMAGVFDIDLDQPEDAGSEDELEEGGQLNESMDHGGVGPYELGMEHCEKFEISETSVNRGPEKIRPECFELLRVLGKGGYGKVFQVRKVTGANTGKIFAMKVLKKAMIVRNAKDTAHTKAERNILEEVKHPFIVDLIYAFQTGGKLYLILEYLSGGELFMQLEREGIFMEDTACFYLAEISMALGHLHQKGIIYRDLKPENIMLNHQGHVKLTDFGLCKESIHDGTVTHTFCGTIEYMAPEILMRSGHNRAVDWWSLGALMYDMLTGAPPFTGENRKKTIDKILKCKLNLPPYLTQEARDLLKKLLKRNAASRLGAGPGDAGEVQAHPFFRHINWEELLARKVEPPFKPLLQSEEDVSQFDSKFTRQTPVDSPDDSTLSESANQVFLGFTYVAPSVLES
AKT1 (PKB alpha), active, sequence (P31749 whole entry): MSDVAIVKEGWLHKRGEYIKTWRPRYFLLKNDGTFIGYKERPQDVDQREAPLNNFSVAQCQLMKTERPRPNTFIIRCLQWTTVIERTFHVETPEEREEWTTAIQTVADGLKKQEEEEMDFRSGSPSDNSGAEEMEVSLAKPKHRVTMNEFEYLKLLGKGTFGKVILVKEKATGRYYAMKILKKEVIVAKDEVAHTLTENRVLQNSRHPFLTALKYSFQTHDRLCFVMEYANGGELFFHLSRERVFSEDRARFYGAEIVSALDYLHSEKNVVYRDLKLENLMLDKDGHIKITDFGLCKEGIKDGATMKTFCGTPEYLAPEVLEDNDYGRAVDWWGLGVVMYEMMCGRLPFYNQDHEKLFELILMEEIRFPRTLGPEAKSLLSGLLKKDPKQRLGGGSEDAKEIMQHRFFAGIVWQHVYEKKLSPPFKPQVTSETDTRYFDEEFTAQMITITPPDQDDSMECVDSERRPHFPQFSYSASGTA
PAK3, sequence (O75914 whole entry): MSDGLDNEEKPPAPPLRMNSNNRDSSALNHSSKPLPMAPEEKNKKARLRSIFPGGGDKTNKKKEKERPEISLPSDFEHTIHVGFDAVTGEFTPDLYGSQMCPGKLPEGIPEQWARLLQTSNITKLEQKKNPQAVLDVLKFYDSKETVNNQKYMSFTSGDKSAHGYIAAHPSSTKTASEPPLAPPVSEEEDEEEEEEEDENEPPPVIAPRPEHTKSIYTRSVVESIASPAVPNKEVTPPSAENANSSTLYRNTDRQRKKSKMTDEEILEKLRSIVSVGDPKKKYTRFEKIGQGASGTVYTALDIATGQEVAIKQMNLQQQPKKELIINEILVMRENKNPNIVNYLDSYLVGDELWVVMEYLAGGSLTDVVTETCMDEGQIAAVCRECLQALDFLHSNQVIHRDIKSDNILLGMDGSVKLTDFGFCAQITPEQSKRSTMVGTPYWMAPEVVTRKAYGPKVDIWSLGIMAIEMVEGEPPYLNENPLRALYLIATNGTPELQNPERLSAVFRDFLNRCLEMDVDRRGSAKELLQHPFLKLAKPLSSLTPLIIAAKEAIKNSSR

Binder: AKRVKGRTWTLCGTPEY [ZaTa peptide (Ala-Lys-Arg-Val-Lys-Gly-Arg-Thr-Trp-Thr-Leu-Cys-Gly-Thr-Pro-Glu-Tyr)]
- in vitro kinase assay at ten times the IC50 for AKT1, percent inhibited [1]: 84%
- in vitro kinase assay at ten times the IC50 for AKT1, percent inhibited [2]: 64%
- IC50, AKT1 in vitro catalytic activity (incorporation of γ-32P into Ser-21 GSK-3β substrate peptide) [3]: ~100 nM
- in vitro kinase assay at ten times the IC50 for AKT1, percent inhibited [4]: 83%
- in vitro kinase assay at ten times the IC50 for AKT1, percent inhibited [5]: 72%
- in vitro kinase assay at ten times the IC50 for AKT1, percent inhibited [6]: 79%
- in vitro kinase assay at ten times the IC50 for AKT1, percent inhibited [7]: 42%
- in vitro kinase assay at ten times the IC50 for AKT1, percent inhibited [8]: 73%
- in vitro kinase assay at ten times the IC50 for AKT1, percent inhibited [9]: 63%
